Test results reported in patent US20230357429A1.
Substitutions are numbered along the chain they refer to. Names may count otherwise.

Tests used:
Conditions in all cases: remark: other sources report otherwise
[1] = target: T1, Human TROP2 ECD (31-274 AA), biotinylated (human), P09758; experiment: ELISA, biotinylated TROP2 ECD on neutravidin plate (BLI cell of the same column: low binding); ELISA: no half-maximal signal up to 1000 nM Fab
T1 chain: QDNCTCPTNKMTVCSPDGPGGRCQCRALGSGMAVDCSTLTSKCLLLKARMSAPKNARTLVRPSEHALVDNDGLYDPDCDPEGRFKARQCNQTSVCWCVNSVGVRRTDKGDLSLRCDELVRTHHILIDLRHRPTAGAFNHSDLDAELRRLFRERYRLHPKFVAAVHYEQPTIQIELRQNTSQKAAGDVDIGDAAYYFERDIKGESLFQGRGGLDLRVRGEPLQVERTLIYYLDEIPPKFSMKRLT

[2] = target: T1, Human TROP2 ECD (31-274 AA), …; experiment: ELISA: biotinylated TROP2 captured on neutravidin plate, Fab titrated, HRP secondary antibody
[3] = target: T1, Human TROP2 ECD (31-274 AA), …; experiment: ELISA, biotinylated TROP2 ECD on neutravidin plate, Fab titrated

Measured: EC50

B1: TBD-4 (anti-TROP2 Fab, LC H91A) (Fab)
light: DIQLTQSPSSLSASVGDRVSITCKASQDVSIAVAWYQQKPGKAPKLLIYSASYRYTGVPDRFSGSGSGTDFTLTISSLQPEDFAVYYCQQAYITPLTFGAGTKVEIKRTVAAPSVFIFPPSDEQLKSGTASVVCLLNNFYPREAKVQWKVDNALQSGNSQESVTEQDSKDSTYSLSSTLTLSKADYEKHKVYACEVTHQGLSSPVTKSFNRGEC
heavy: QVQLQQSGSELKKPGASVKVSCKASGYTFTNYGMNWVKQAPGQGLKWMGWINTYTGEPTYTDDFKGRFAFSLDTSVSTAYLQISSLKADDTAVYFCARGGFGSSYWYFDVWGQGSLVTVSSASTKGPSVFPLAPSSKSTSGGTAALGCLVKDYFPEPVTVSWNSGALTSGVHTFPAVLQSSGLYSLSSVVTVPSSSLGTQTYICNVNHKPSNTKVDKKVEPKSC
modifications: here or on the partner: biotinylated (site not stated)
> 1000 nM: all assays above

B2: TBD-5 (anti-TROP2 Fab, LC Y92A) (Fab)
light: B1 light with A91H, Y92A
heavy: B1 heavy
modifications: here or on the partner: biotinylated (site not stated)
> 1000 nM: all assays above
